Assay results published in PMC3616122, “Crystal Structure of KLHL3 in Complex with Cullin3” (PLoS ONE, 2013).
Residue numbers refer to the chain shown, from its start. Names may count otherwise. Values belong to the binder of their own block, whether it stands above or below them.

Legend:
[1] = target: the molecule itself; assay: SEC; Superdex S75 in buffer A (20 mM Tris pH 7.5, 150 mM NaCl, 1 mM TCEP, 10% v/v glycerol), elution monitored at 280 nm; proteins alone and an equimolar mixture
[2] = target: T1, Cul3^NTD, N-terminal domain of Cullin3 residues 20-381 with stabilizing mutations I342R/L346D (human, UniProt Q13618 20-381, I342R | L346D); assay: ITC; VP-ITC at 25°C in buffer A; KLHL3^BTB-BACK at 150 µM injected into Cul3^NTD at 15 µM; one-site binding model; a single titration for each protein; details: both partners purified
T1 construct: residues 26-379 are in the final model; also called Cul3 N-terminal domain; source: E. coli BL21 DE3 Codon+, purified (NiNTA, TEV cleavage, Superdex S75 SEC); not shown: thioredoxin, N-terminal, cleaved; His tag, N-terminal, cleaved
T1 sequence (Q13618 20-381 I342R/L346D): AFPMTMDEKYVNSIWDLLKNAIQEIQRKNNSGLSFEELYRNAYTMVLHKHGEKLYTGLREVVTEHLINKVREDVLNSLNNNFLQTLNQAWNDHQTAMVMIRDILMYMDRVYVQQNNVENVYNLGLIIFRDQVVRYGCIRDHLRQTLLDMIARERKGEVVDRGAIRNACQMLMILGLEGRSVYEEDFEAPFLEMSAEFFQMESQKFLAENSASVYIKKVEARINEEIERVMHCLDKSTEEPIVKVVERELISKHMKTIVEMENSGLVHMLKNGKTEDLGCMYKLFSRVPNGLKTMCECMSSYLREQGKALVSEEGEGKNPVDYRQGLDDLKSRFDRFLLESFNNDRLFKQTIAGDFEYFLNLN

[3] = target: T1, Cul3^NTD, N-terminal domain of Cullin3 …; assay: crystal structure; KLHL3^BTB-BACK (SER version) and Cul3^NTD mixed 1:1 at 10 mg/ml total; hanging drop, 0.1 M sodium tartrate, 17% w/v PEG 3350, room temperature; 3.5 Å; one chain of each in the asymmetric unit, BTB homodimer by a crystallographic 2-fold; details: both partners purified
[4] = target: the molecule itself; assay: as above

Kd [2]: 108 nM
stoichiometry N [2]: 1
B1: KLHL3^BTB-BACK, human KLHL3 residues 27-276, wild type (domain or fragment, UniProt Q9UH77 27-276, looked up)
chain: TVNPAHMGKAFKVMNELRSKQLLCDVMIVAEDVEIEAHRVVLAACSPYFCAMFTGDMSESKAKKIEIKDVDGQTLSKLIDYIYTAEIEVTEENVQVLLPAASLLQLMDVRQNCCDFLQSQLHPTNCLGIRAFADVHTCTDLLQQANAYAEQHFPEVMLGEEFLSLSLDQVCSLISSDKLTVSSEEKVFEAVISWINYEKETRLEHMAKLMEHVRLPLLPRDYLVQTVEEEALIKNNNTCKDFLIEAMKYH
notes: KLHL3, human, residues 27-276 (BTB and BACK domains), without the surface entropy reduction mutations; PDB 4HXI holds the same limits with K87A/K89A/K90A; Removal of the His tag is told only for Cul3^NTD; also called wild-type KLHL3^BTB-BACK; source: E. coli BL21 DE3 Codon+, purified (NiNTA, Superdex S75 SEC)
stoichiometry N [1]: 2

B2: KLHL3^BTB-BACK A77E (PHAII mutation) (domain or fragment, human, UniProt Q9UH77 27-276, looked up)
chain: B1 chain with A51E
notes: KLHL3, human, residues 27-276, PHAII patient mutation A77E introduced into the wild-type KLHL3^BTB-BACK plasmid; PDB 4HXI holds the same limits with K87A/K89A/K90A and without A77E; source: E. coli BL21 DE3 Codon+, purified (NiNTA, Superdex S75 SEC)
stoichiometry N [1]: 2

B3: KLHL3^BTB-BACK M78V (PHAII mutation) (domain or fragment, human, UniProt Q9UH77 27-276, looked up)
chain: B1 chain with M52V
notes: KLHL3, human, residues 27-276, PHAII patient mutation M78V introduced into the wild-type KLHL3^BTB-BACK plasmid; PDB 4HXI holds the same limits with K87A/K89A/K90A and without M78V; source: E. coli BL21 DE3 Codon+, purified (NiNTA, Superdex S75 SEC)
stoichiometry N [1]: 2

B4: KLHL3^BTB-BACK E85A (PHAII mutation) (domain or fragment, human, UniProt Q9UH77 27-276, looked up)
chain: B1 chain with E59A
notes: KLHL3, human, residues 27-276, PHAII patient mutation E85A introduced into the wild-type KLHL3^BTB-BACK plasmid; PDB 4HXI holds the same limits with K87A/K89A/K90A and without E85A; source: E. coli BL21 DE3 Codon+, purified (NiNTA, Superdex S75 SEC)
stoichiometry N [1]: 2

Kd [2]: 4100 nM
B5: KLHL3^BTB-BACK C164F (PHAII mutation) (domain or fragment, human, UniProt Q9UH77 27-276, looked up)
chain: B1 chain with C138F
notes: KLHL3, human, residues 27-276, PHAII patient mutation C164F introduced into the wild-type KLHL3^BTB-BACK plasmid; PDB 4HXI holds the same limits with K87A/K89A/K90A and without C164F; source: E. coli BL21 DE3 Codon+, purified (NiNTA, Superdex S75 SEC)
stoichiometry N [1]: 2

binding result [3]: binds
B6: KLHL3^BTB-BACK, human KLHL3 residues 27-276, surface entropy reduction version K87A/K89A/K90A used in crystallization (domain or fragment, UniProt Q9UH77 27-276, looked up)
chain: B1 chain with K61A, K63A, K64A
notes: KLHL3, human, residues 27-276 (BTB and BACK domains) with three lysines mutated to alanine for crystallization; residues 32-223 are in the final model; also called KLHL3^BTB-BACK (SER); source: E. coli BL21 DE3 Codon+, purified (NiNTA, Superdex S75 SEC)
binding result [4]: binds
